We go through 57 variants from the RNAGym collection of RNA variant scans (doi:10.7554/elife.80360).

The chains are these.
B1: Hammerhead Ribozyme (parent)
chain: ACCGGAUGUGCUUUCCGGUCUGAUGAGUCCGUGAGGACGAAACAG

The data set covers variants of B1. Briefly: self-cleavage, relative activity (ratio to wild type); higher = more cleavage; co-transcriptional.
In the case of ACCGGAGGUGCGUUCCGGUCUGAUGAGUCCGUGAGGACGAAACAG [U7G U12G], the self-cleavage is 1.23. Next, ACCGGAGGUGCCUUCCGGUCUGAUGAGUCCGUGAGGACGAAACAG [U7G U12C]: 1.42. ACCGGAGGUGCAUUCCGGUCUGAUGAGUCCGUGAGGACGAAACAG [U7G U12A]: the self-cleavage came to 1.24. With ACCGGAGGUGCUCUCCGGUCUGAUGAGUCCGUGAGGACGAAACAG [U7G U13C], the self-cleavage was determined as 1.45. Consider ACCGGAGGUGCUGUCCGGUCUGAUGAGUCCGUGAGGACGAAACAG [U7G U13G], for which the self-cleavage came to 1.67. Take ACCGGAGGUGCUAUCCGGUCUGAUGAGUCCGUGAGGACGAAACAG [U7G U13A]: the self-cleavage was found to be 1.66. Next, ACCGGAGGUGCUUUCCGGUCUAAUGAGUCCGUGAGGACGAAACAG [U7G G22A]: 0.33; ACCGGAGGUGCUUUCCGGUCUUAUGAGUCCGUGAGGACGAAACAG [U7G G22U]: 0.369; ACCGGAGGUGCUUUCCGGUCUCAUGAGUCCGUGAGGACGAAACAG [U7G G22C]: 0.389.

Take ACCGGAUAUGCUUUCCGGUCUGAUGAGUCCGUGUGGACGAAACAG [G8A A34U]: the self-cleavage is 0.89. With ACCGGAUAUGCUUUCCGGUCUGAUGAGUCCGUGGGGACGAAACAG [G8A A34G], the self-cleavage is 1.06.

In the case of ACCGGAUAUGCUUUCCGGUCUGAUGAGUCCGUGCGGACGAAACAG [G8A A34C], the self-cleavage amounted to 0.936.

Regarding ACCGGAGGUGCUUUCCAGUCUGAUGAGUCCGUGAGGACGAAACAG [U7G G17A], the self-cleavage came out at 0.666. The result for ACCGGAGGUGCUUUCCCGUCUGAUGAGUCCGUGAGGACGAAACAG [U7G G17C] reads 0.552; that for ACCGGAGGUGCUUUCCUGUCUGAUGAGUCCGUGAGGACGAAACAG [U7G G17U], 0.548; that for ACCGGAUAUGCUUUCCGGUCUGAUGAGUCCGUGAGGACGAAACAG [G8A], 1.05. Consider ACCGGAGGUGCUUUCCGGUCUGAUGAGUCCGUGAGGACGAAACAC [U7G G45C], for which the self-cleavage was 0.441. Next, ACCGGAGGUGCUUUCCGGUCUGAUGAGUCCGUGAGGACGAAACAU [U7G G45U]: 0.526.

Turning to ACCGGAGGUGCUUUCCGGUCUGAUGAGUCCGUGAGGACGAAACAA [U7G G45A], the self-cleavage is 0.559. The result for ACCGGAGGUGCUUUCCGGUCUGAUGAGUCAGUGAGGACGAAACAG [U7G C30A] reads 1.21; that for ACCGGAGGUGCUUUCCGGUCUGAUGAGUCGGUGAGGACGAAACAG [U7G C30G], 1.19. Next, ACCGGAGGUGCUUUCCGGUCUGAUGAGUCUGUGAGGACGAAACAG [U7G C30U]: 1.34; ACCGGAGGUGCUUUCCGGUCUGAUGAGUCCGUGAGGACGAAAAAG [U7G C43A]: 0.382; ACCGGAGGUGCUUUCCGGUCUGAUGAGUCCGUGAGGACGAAAGAG [U7G C43G]: 0.427. In the case of ACCGGAGGUGCUUUCCGGUCUGAUGAGUCCGUGAGGACGAAAUAG [U7G C43U], the self-cleavage amounted to 0.389.

In the case of ACCGGAGGUACUUUCCGGUCUGAUGAGUCCGUGAGGACGAAACAG [U7G G10A], the self-cleavage turned out to be 1.72. ACCGGAGGUUCUUUCCGGUCUGAUGAGUCCGUGAGGACGAAACAG [U7G G10U]: the self-cleavage is 1.46. As for ACCGGAGGUCCUUUCCGGUCUGAUGAGUCCGUGAGGACGAAACAG [U7G G10C], the self-cleavage came to 1.74. For the variant ACCGGAGGUGCUUUCCGGUCUGAUGAGUCCGUGAGGACAAAACAG [U7G G39A], the self-cleavage turned out to be 0.369. As for ACCGGAGGUGCUUUCCGGUCUGAUGAGUCCGUGAGGACUAAACAG [U7G G39U], the self-cleavage was determined as 0.365. With ACCGGAGGUGCUUUCCGGUCUGAUGAGUCCGUGAGGACCAAACAG [U7G G39C], the self-cleavage was found to be 0.293.

As to ACCGGAUAUGCUUUCCGGUCUGAUGAGUCCGUGAGGACGAUACAG [G8A A41U], the self-cleavage came out at 0.323.

On to ACCGGAUAUGCUUUCCGGUCUGAUGAGUCCGUGAGGACGACACAG [G8A A41C], for which the self-cleavage was determined as 0.353. ACCGGAUAUGCUUUCCGGUCUGAUGAGUCCGUGAGGACGAGACAG [G8A A41G]: the self-cleavage was determined as 0.331. For the variant ACCGGAUAUGCUUUCCGGUCUGAUGGGUCCGUGAGGACGAAACAG [G8A A26G], the self-cleavage was determined as 0.371. On to ACCGGAUAUGCUUUCCGGUCUGAUGCGUCCGUGAGGACGAAACAG [G8A A26C], for which the self-cleavage amounted to 0.577. ACCGGAUAUGCUUUCCGGUCUGAUGUGUCCGUGAGGACGAAACAG [G8A A26U]: the self-cleavage was 0.899. With ACCGGAGGUGCUUUACGGUCUGAUGAGUCCGUGAGGACGAAACAG [U7G C15A], the self-cleavage was 0.89. With ACCGGAGGUGCUUUUCGGUCUGAUGAGUCCGUGAGGACGAAACAG [U7G C15U], the self-cleavage came out at 1.26. Regarding ACCGGAGGUGCUUUGCGGUCUGAUGAGUCCGUGAGGACGAAACAG [U7G C15G], the self-cleavage worked out at 0.699. Take ACCGGAGGUGCUUUCGGGUCUGAUGAGUCCGUGAGGACGAAACAG [U7G C16G]: the self-cleavage is 0.765. ACCGGAGGUGCUUUCUGGUCUGAUGAGUCCGUGAGGACGAAACAG [U7G C16U]: the self-cleavage was 1.4. In the case of ACCGGAGGUGCUUUCAGGUCUGAUGAGUCCGUGAGGACGAAACAG [U7G C16A], the self-cleavage is 0.989. Regarding ACCGGAGGUGCUUUCCGGUCCGAUGAGUCCGUGAGGACGAAACAG [U7G U21C], the self-cleavage amounted to 0.641. Take ACCGGAGGUGCUUUCCGGUCAGAUGAGUCCGUGAGGACGAAACAG [U7G U21A]: the self-cleavage is 0.345. With ACCGGAGGUGCUUUCCGGUCGGAUGAGUCCGUGAGGACGAAACAG [U7G U21G], the self-cleavage was determined as 0.426. On to ACCGGAGGUGCUUUCCGGUCUGAUGAGUCCGUGAGGAUGAAACAG [U7G C38U], for which the self-cleavage is 1.4. Regarding ACCGGAGGUGCUUUCCGGUCUGAUGAGUCCGUGAGGAAGAAACAG [U7G C38A], the self-cleavage turned out to be 0.502.

As to ACCGGAGGUGCUUUCCGGUCUGAUGAGUCCGUGAGGAGGAAACAG [U7G C38G], the self-cleavage was determined as 0.521. The result for ACCGGAGGUGCUUUCCGGUCUGAUGAGUCCGUUAGGACGAAACAG [U7G G33U] reads 1.32; that for ACCGGAGGUGCUUUCCGGUCUGAUGAGUCCGUAAGGACGAAACAG [U7G G33A], 1.34; that for ACCGGAGGUGCUUUCCGGUCUGAUGAGUCCGUCAGGACGAAACAG [U7G G33C], 1.23. ACCGGAGGUGCUUUCCGGUCUGAUGAGUCCGUGAGUACGAAACAG [U7G G36U]: the self-cleavage amounted to 0.735.

On to ACCGGAGGUGCUUUCCGGUCUGAUGAGUCCGUGAGCACGAAACAG [U7G G36C], for which the self-cleavage came to 0.557. ACCGGAGGUGCUUUCCGGUCUGAUGAGUCCGUGAGAACGAAACAG [U7G G36A]: the self-cleavage came to 0.624. Regarding ACCGGAGGUGCUUUCCGGUUUGAUGAGUCCGUGAGGACGAAACAG [U7G C20U], the self-cleavage came out at 0.447. The result for ACCGGAGGUGCUUUCCGGUGUGAUGAGUCCGUGAGGACGAAACAG [U7G C20G] reads 0.386.
